How the values were obtained:
[1] = molecular target: Monomeric SARS-CoV-2 RBD (SARS-CoV-2) (UniProt P0DTC2)
[2] = molecular target: RBD-12GS-I53-50A trimeric component (SARS-CoV-2)
[3] = molecular target: RBD-16GS-I53-50A trimeric component (SARS-CoV-2)
[4] = molecular target: RBD-8GS-I53-50A trimeric component (SARS-CoV-2)

With CR3022 Fab the Kd [1] was 45 nM, the koff [1] was 0.009 s⁻¹ and the kon [1] was 200000 M⁻¹ s⁻¹. For the same substance, the Kd [2] was 42 nM, the koff [2] was 0.009 s⁻¹ and the kon [2] was 200000 M⁻¹ s⁻¹. For the same substance, the Kd [3] was 56 nM, the koff [3] was 0.01 s⁻¹ and the kon [3] was 200000 M⁻¹ s⁻¹. It also gave a Kd [4] of 57 nM, a koff [4] of 0.01 s⁻¹ and a kon [4] of 200000 M⁻¹ s⁻¹.

Reference: patent US20240277831A1
